Test results taken from patent publication US6087115A, “Methods of identifying negative antagonists for G protein coupled receptors” (Cornell Research Foundation, Inc., priority 1997, dated 2000).

T1: KSHV GPCR (Human herpesvirus 8 type P, UniProt Q98146)
T1 construct: expressed in transfected cells; host or cells: COS-1
T1 sequence (Q98146 1-342): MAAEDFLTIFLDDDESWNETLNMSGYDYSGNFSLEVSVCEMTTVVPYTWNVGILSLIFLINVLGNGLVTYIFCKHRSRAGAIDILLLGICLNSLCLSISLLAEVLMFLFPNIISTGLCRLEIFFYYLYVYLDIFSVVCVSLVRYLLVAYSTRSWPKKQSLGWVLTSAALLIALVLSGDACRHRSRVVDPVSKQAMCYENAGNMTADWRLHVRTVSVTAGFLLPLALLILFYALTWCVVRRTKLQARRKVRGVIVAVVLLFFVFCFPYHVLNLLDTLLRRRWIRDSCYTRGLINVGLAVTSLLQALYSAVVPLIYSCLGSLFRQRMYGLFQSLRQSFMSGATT


Key:
[1] = system: human IL-8 receptors (type A or B); experiment: Inositol phosphate accumulation in COS-1 cells transfected with human IL-8 receptor plasmids with or without Ga16/Ga15; format: cell-based; conditions: COS cells expressing IL-8 receptors without cotransfected Ga16 or Ga15, absence or presence of IL-8
[2] = biological target: human IL-8 receptor types A or B; conditions: values previously reported (Holmes et al. 1991; Murphy and Tiffany 1991); cited from earlier work
KSHV GPCR = biological target: T1, KSHV GPCR; experiment: Competition binding of 125I-IL-8 by unlabelled chemokines to COS-1 cells transfected with pcKSHV GPCR; conditions: for binding to KSHV GPCR (in words): competition analysis with 125I-IL-8, FIGS. 2 and 3; for Ki: competition of human recombinant 125I-IL-8, COS-1 cells transfected with pcKSHV GPCR, 4° C., 2 hrs, read-out: Kd or Ki
Procedure: Data represent the mean of triplicate determinations in a representative of two experiments;
Competition binding. The coding sequence of KSHV GPCR was cleaved from its original subcloning plasmid (Cesarman et al. 1996) by digestion with NcoI and inserted into the EcoRV site of the eukaryotic expression vector pcDNA3.1(+) (Invitrogen), producing the pcKSHV GPCR used for expression in mammalian cells. COS-1 cells (American Type Culture Collection) were grown in 100 mm petri dishes in Dulbecco's modified Eagle's medium (DMEM; GIBCO-BRL) with 5% Nu-Serum (Collaborative Research) in a humidified incubator in an atmosphere of 5% CO2 at 37° C. […] Approximately 100,000 cells per well (in 12-well plates) were washed with Hank's balanced salt solution (HBSS) containing 25 mM HEPES, pH 7.4 (GIBCO-BRL). […] The binding buffer contained bovine serum albumin (BSA; 1 mg/ml), bacitracin (1 mg/ml), and phenyl methyl sulphonyl fluoride (PMSF; 1 mM). Assays were terminated by aspirating the binding buffer, washing three times with chilled HBSS and solubilizing the cells with 0.4 N NaOH. An aliquot of this solution was counted in a gamma counter and the data expressed as percent of maximum bound. Binding and dose-response curves were analyzed using Prism software (GraphPad, Inc.).

Molecule	accumulation of IPs [1]	Kd [2] [nM]	binding to KSHV GPCR (in words) (KSHV GPCR)	Ki (KSHV GPCR) [nM]
IL-8: member of the family of C-X-C chemokines; used as radioligand and unlabelled competitor	little measurable accumulation	0.8 to 1	–	–
MCP-1: chemokine of the C-C family	–	–	do not	–
MGSA: C-X-C chemokine	–	–	also bind to KSHV GPCR	270
PF-4: C-X-C chemokine	–	–	also bind to KSHV GPCR	150
RANTES: chemokine of the C-C family	–	–	bind to KSHV GPCR	520
NAP-2: C-X-C chemokine (protein, UniProt P02775 59-128, looked up, Neutrophil-activating peptide 2, C-X-C chemokine) Neutrophil-activating peptide …: AELRCMCIKTTSGIHPKNIQSLEVIGKGTHCNQVEVIATLKDGRKICLDPDAPRIKKIVQKKLAGDESAD	–	–	also bind to KSHV GPCR	23
MIP-1b: chemokine of the C-C family (protein, UniProt P13236 24-92, looked up) C-C motif chemokine 4: APMGSDPPTACCFSYTARKLPRNFVVDYYETSSLCSQPAVVFQTKRSKQVCADPSESWVQEYVYDLELN	–	–	do not	–
I-309: chemokine of the C-C family (protein, UniProt P22362 24-96, looked up) C-C motif chemokine 1: KSMQVPFSRCCFSFAEQEIPLRAILCYRNTSSICSNEGLIFKLKRGKEACALDTVGWVQRHRKMLRHCPSKRK	–	–	bind to KSHV GPCR	110
